The results in this text go back to patent US20220211018A1.

For one series, the target named is collagen agonist. The experiment in a line: cell-based or functional assay. The note with it: scale: % more aggregation than the monoallelic vWF edit blood.
Series [1] deals with human thrombomodulin (hTBM) expressed from the B200 vector on porcine aortic endothelial cells (UniProt P07204).
Sequence of UniProt P07204 (P07204 whole entry, looked up): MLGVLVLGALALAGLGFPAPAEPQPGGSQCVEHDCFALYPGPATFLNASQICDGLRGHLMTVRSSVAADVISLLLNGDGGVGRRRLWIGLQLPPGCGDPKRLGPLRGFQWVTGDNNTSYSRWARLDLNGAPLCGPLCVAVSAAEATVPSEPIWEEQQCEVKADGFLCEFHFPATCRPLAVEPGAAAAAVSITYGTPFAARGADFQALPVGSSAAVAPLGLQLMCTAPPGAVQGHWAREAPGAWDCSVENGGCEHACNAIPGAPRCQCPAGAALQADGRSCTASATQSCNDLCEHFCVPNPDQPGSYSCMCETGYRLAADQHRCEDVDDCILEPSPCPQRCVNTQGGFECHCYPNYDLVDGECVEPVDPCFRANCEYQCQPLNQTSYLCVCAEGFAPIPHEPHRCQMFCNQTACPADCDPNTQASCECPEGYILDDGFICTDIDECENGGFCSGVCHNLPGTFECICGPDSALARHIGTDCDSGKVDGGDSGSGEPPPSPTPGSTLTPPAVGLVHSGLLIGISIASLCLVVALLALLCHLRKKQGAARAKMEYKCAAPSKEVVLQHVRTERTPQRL

Substance “porcine von Willebrand factor (unmodified) (from UniProt Q28833 438-2482)” returned a whole blood platelet aggregation (Chrono-log Whole Blood Aggregometer) after collagen agonist (2 ug/mL) with collagen agonist of 50.
Consider human thrombin, for which the “activated protein C (APC) assay on pAEC: human thrombin and human Protein C added, Chromogenix S-2366 substrate, absorbance at 405 nm, nM APC/mg protein” value in series [1] is “pAEC from a transgenic pig expressing hTBM and hEPCR from the B200 vector showed a significantly elevated APC levels when compared to GTKO transgenic pig control”.
